From publication PMC10641069, “Intra- and inter-molecular regulation by intrinsically-disordered regions governs PUF protein RNA binding” (Nature Communications, 2023)
Substitutions are numbered along the chain they refer to. “And” between values parts separate entries of the source, which are not always exact repeats. Equal values may be shown once. Read-outs that look alike come from different tables or passages of the source.

B1: FBF-2 RBD + CT (FBF-2 residues 164-632) (domain or fragment, C. elegans, UniProt Q09312 164-632, looked up)
chain: SNNVLPTWSLDSNGEMRSRLSLSEVLDSGDLMKFAVDKTGCQFLEKAVKGSLTSYQKFQLFEQVIGRKDDFLKLSTNIFGNYLVQSVIGISLATNDDGYTKRQEKLKNFISSQMTDMCLDKFACRVIQSSLQNMDLSLACKLVQALPRDARLIAICVDQNANHVIQKVVAVIPLKNWEFIVDFVATPEHLRQICSDKYGCRVVQTIIEKLTADSMNVDLTSAAQNLRERALQRLMTSVTNRCQELATNEYANYIIQHIVSNDDLAVYRECIIEKCLMRNLLSLSQEKFASHVVEKAFLHAPLELLAEMMDEIFDGYIPHPDTGKDALDIMMFHQFGNYVVQCMLTICCDAVSGRRQTKEGGYDHAISFQDWLKKLHSRVTKERHRLSRFSSGKKMIETLANLRSTHPIYELQSSGHDSFKTDYFSTASEHDGPELEKNGIEEGSLMLEPRSNKSSVSVKFSSSGSHGDD
notes: The tag was cleaved with Ulp1 protease; also called FBF-2^164–632; wild type RBD + CT; source: E. coli BL21-CodonPlus (DE3)-RIL, purified (Ni-NTA, heparin, Superdex 75); not shown: His6-SUMO, N-terminal, cleaved
B2: LST-1 B peptide (LST-1 residues 67-98) (peptide, UniProt P91820 67-98, looked up)
chain: SSSPQQRSGLRSQKLHLTYIEKNKRVRAMIPQ
notes: The tag was cleaved with Ulp1 protease; also called LST-1^67–98; source: E. coli, purified (Ni-NTA, heparin, Superdex 75); not shown: His6-SUMO, N-terminal, cleaved

Experiments:
[1] = target: the molecule itself; assay: crystal structure; FBF-2 RBD + CT with cFBE RNA (5′-CUGUGAAUG-3′), 2.1 Å; CT residues 607-613 seen bound to the RBD of the same construct (intramolecular by the paper's words)
FBF-2 RBD+CT [2] = target: T1, FBF-2 RBD+CT (Caenorhabditis elegans, UniProt Q09312 164-632); assay: crystal structure; 2.1 A; 30% PEG 400, 0.1 M Tris pH 8.5; EMSA: FBF-2 in 20 mM HEPES pH 7.4, 150 mM NaCl, 0.5 mM TCEP mixed 1:1 with 5 nM final RNA in 10 mM HEPES pH 7.4, 0.01% Tween 20, 0.1 mg/ml BSA, 0.1 mg/ml yeast; conditions: protein: recombinant; tags: none (His6-SUMO removed with Ulp1)
T1 sequence: B1 chain

FBF-2 RBD + CT L610A [3] = target: T2, FBF-2 RBD + CT L610A (C. elegans, UniProt Q09312 164-632, L610A); assay: ITC
T2 sequence: B1 chain with L447A

[4] = target: T3, FBF-2 RBD (FBF-2 residues 164-575) (C. elegans, UniProt Q09312 164-575); assay: ITC
T3 chain: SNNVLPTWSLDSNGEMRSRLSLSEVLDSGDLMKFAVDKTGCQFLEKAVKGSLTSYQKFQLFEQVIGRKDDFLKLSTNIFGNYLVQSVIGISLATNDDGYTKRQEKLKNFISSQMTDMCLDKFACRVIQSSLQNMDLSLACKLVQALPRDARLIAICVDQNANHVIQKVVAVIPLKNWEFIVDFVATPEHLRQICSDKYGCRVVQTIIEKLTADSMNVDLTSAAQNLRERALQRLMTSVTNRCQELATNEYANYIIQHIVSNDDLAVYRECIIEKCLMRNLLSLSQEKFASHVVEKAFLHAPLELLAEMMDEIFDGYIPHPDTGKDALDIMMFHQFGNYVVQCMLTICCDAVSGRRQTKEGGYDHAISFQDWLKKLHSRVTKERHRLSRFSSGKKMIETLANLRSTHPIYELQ

FBF-2 RBD + CT Loop6A [5] = target: T4, FBF-2 RBD + CT Loop6A (C. elegans, UniProt Q09312 164-632, E592A | D594A | E597A | E599A | E604A | E605A); assay: ITC
T4 sequence: B1 chain with E429A, D431A, E434A, E436A, E441A, E442A

[6] = target: T5, FBF-2 RBD + CT (FBF-2 residues 164-632) (C. elegans, UniProt Q09312 164-632); assay: ITC
T5 chain: B1 chain

[7] = target: T3, FBF-2 RBD (FBF-2 residues 164-575); assay: ITC
FBF-2 RBD + CT Loop6A [8] = target: T6, FBF-2 RBD + CT Loop6A (C. elegans, UniProt Q09312 164-632, E592A | D594A | E597A | E599A | E604A | E605A); assay: ITC; peptide (100–400 µM) titrated from the syringe into the cell containing FBF-2 (10–30 µM); 20 °C; 20 mM HEPES pH 7.4, 150 mM NaCl, 0.5 mM TCEP; no RNA; one-site model; mean of two replicates; conditions: both partners purified
T6 construct: source: E. coli, expressed and purified like wild type proteins; not shown: His6-SUMO, N-terminal, cleaved
T6 sequence (looked up): B1 chain with E429A, D431A, E434A, E436A, E441A, E442A

FBF-2 RBD + CT L610A [9] = target: T7, FBF-2 RBD + CT L610A (C. elegans, UniProt Q09312 164-632, L610A); assay: as above; conditions: both partners purified
T7 construct: source: E. coli, expressed and purified like wild type proteins; not shown: His6-SUMO, N-terminal, cleaved
T7 sequence (looked up): B1 chain with L447A

[10] = target: B1; assay: as above; conditions: both partners purified
[11] = target: B1; assay: cell-based or functional assay
FBF-2 RBD = target: T8, FBF-2 RBD (Caenorhabditis elegans, UniProt Q09312 164-575); assay: SPR; kon 13.6e4 M-1 s-1, koff 0.86e-3 s-1; EMSA: FBF-2 in 20 mM HEPES pH 7.4, 150 mM NaCl, 0.5 mM TCEP mixed 1:1 with 5 nM final RNA in 10 mM HEPES pH 7.4, 0.01% Tween 20, 0.1 mg/ml BSA, 0.1 mg/ml yeast; conditions: protein: recombinant; tags: none (His6-SUMO removed with TEV protease); label: 3'-biotin
T8 sequence: T3 chain

FBF-2 RBD+CT [12] = target: T1, FBF-2 RBD+CT; assay: SPR; kon 7.1e4 M-1 s-1, koff 4.42e-3 s-1; EMSA: FBF-2 in 20 mM HEPES pH 7.4, 150 mM NaCl, 0.5 mM TCEP mixed 1:1 with 5 nM final RNA in 10 mM HEPES pH 7.4, 0.01% Tween 20, 0.1 mg/ml BSA, 0.1 mg/ml yeast; conditions: protein: recombinant; tags: none (His6-SUMO removed with Ulp1); label: 3'-biotin
FBF-2 RBD+CT L610A = target: T9, FBF-2 RBD+CT L610A (Caenorhabditis elegans, UniProt Q09312 164-632, L610A); assay: SPR; kon 15.5e4 M-1 s-1, koff 1.36e-3 s-1; EMSA: FBF-2 in 20 mM HEPES pH 7.4, 150 mM NaCl, 0.5 mM TCEP mixed 1:1 with 5 nM final RNA in 10 mM HEPES pH 7.4, 0.01% Tween 20, 0.1 mg/ml BSA, 0.1 mg/ml yeast; conditions: protein: recombinant; tags: none (His6-SUMO removed with Ulp1); label: 3'-biotin
T9 sequence: B1 chain with L447A

FBF-2 RBD+CT Loop6A = target: T10, FBF-2 RBD+CT Loop6A (Caenorhabditis elegans, UniProt Q09312 164-632, E592A;D594A;E597A;E599A;E604A;E605A); assay: SPR; kon 10.9e4 M-1 s-1, koff 0.94e-3 s-1; EMSA: FBF-2 in 20 mM HEPES pH 7.4, 150 mM NaCl, 0.5 mM TCEP mixed 1:1 with 5 nM final RNA in 10 mM HEPES pH 7.4, 0.01% Tween 20, 0.1 mg/ml BSA, 0.1 mg/ml yeast; conditions: protein: recombinant; tags: none (His6-SUMO removed with Ulp1); label: 3'-biotin
T10 sequence: B1 chain with E429A, D431A, E434A, E436A, E441A, E442A

FBF-2 RBD+CT Y479A = target: T11, FBF-2 RBD+CT Y479A (Caenorhabditis elegans, UniProt Q09312 164-632, Y479A); assay: SPR; kon 10.2e4 M-1 s-1, koff 1.18e-3 s-1; EMSA: FBF-2 in 20 mM HEPES pH 7.4, 150 mM NaCl, 0.5 mM TCEP mixed 1:1 with 5 nM final RNA in 10 mM HEPES pH 7.4, 0.01% Tween 20, 0.1 mg/ml BSA, 0.1 mg/ml yeast; conditions: protein: recombinant; tags: none (His6-SUMO removed with Ulp1); label: 3'-biotin
T11 sequence: B1 chain with Y316A

B1
binding result [1]: binds

CUGUGAAUG (ssRNA) [cFBE RNA]
binding result (FBF-2 RBD+CT [2]): binds

B2
Kd (FBF-2 RBD + CT L610A [3]): 46 nM and 77 nM
Kd [4]: 46 nM and 45 nM
Kd (FBF-2 RBD + CT Loop6A [5]): 1300 nM and 1100 nM
Kd [6]: 2100 nM and 3300 nM
Kd [7]: 50 nM
binding result (FBF-2 RBD + CT Loop6A [8]): binds
Kd (FBF-2 RBD + CT L610A [9]): 60 nM
Kd [10]: 2700 nM
RNA-binding affinity of FBF-2 RBD + CT for gld-1 FBEa RNA by EMSA in the presence of 50 µM LST-1 B [11]: 5 fold

AUCAUGUGCCAUACA (ssRNA) [gld-1 FBEa RNA (SPR)]
Kd (FBF-2 RBD): 6.6 ± 2.3 nM
Kd (FBF-2 RBD+CT [12]): 65.1 ± 21.1 nM
Kd (FBF-2 RBD+CT L610A): 9.4 ± 3.6 nM
Kd (FBF-2 RBD+CT Loop6A): 9.5 ± 4.2 nM
Kd (FBF-2 RBD+CT Y479A): 12.9 ± 6.4 nM
